Assay results reported in IntAct's records for PubMed 16720724.

B1: Activin receptor type-1B (Homo sapiens), P36896 (parent)
chain: MAESAGASSFFPLVVLLLAGSGGSGPRGVQALLCACTSCLQANYTCETDGACMVSIFNLDGMEHHVRTCIPKVELVPAGKPFYCLSSEDLRNTHCCYTDYCNRIDLRVPSGHLKEPEHPSMWGPVELVGIIAGPVFLLFLIIIIVFLVINYHQRVYHNRQRLDMEDPSCEMCLSKDKTLQDLVYDLSTSGSGSGLPLFVQRTVARTIVLQEIIGKGRFGEVWRGRWRGGDVAVKIFSSREERSWFREAEIYQTVMLRHENILGFIAADNKDNGTWTQLWLVSDYHEHGSLFDYLNRYTVTIEGMIKLALSAASGLAHLHMEIVGTQGKPGIAHRDLKSKNILVKKNGMCAIADLGLAVRHDAVTDTIDIAPNQRVGTKRYMAPEVLDETINMKHFDSFKCADIYALGLVYWEIARRCNSGGVHEEYQLPYYDLVPSDPSIEEMRKVVCDQKLRPNIPNWWQSYEALRVMGKMMRECWYANGAARLTALRIKKTLSQLSVQEDVKI

Variants of: B1
Conditions: with smad7_human SMAD7, O15105
Sequence of smad7_human SMAD7, O15105 (O15105 whole entry): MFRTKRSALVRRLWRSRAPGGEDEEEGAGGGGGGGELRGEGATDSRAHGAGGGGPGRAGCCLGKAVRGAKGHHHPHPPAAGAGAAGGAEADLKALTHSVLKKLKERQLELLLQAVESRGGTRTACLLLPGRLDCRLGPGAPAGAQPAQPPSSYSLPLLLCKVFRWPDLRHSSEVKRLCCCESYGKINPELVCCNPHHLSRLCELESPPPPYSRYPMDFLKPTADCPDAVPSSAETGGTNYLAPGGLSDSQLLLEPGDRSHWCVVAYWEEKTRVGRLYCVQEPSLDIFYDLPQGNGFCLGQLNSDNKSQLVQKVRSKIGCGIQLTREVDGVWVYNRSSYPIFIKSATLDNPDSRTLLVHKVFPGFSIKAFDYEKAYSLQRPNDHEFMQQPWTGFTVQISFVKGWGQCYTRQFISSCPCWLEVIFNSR

| Variant | effect of a mutation on the interaction |
| --- | --- |
| T206E | increasing interaction |
